# Reference: US7056679 (ANTYRA, dated 2006)
# B1: DGI-2-40F-4-F12 (peptide)
# peptide: GLYRRAGDASVGFSRWGRFDCQVYFSVECLLGSSWGGYSAAAGAPVPYPDPLEPRP
# notes: not shown: phage gene III coat protein (pCANTAB5E)
# B2: DGI-2-20R-4-G8 (peptide)
# peptide: GMWIRPNGHMFLQGGYTARSAAAGAPVPYPDPLEPRP
# notes: as for B1
# B3: DGI-2-20R-3-C12 (peptide)
# peptide: RWSLPAYLCRFVSQASCNSRAAAGAPVPYPDPLEPRP
# notes: as for B1
# B4: DGI-2-20R-4-E5 (peptide)
# peptide: LHRLGQSMGGTLDHLQGWGVAAAGAPVPYPDPLEPRP
# notes: as for B1
# B5: DGI-2-40F-3-D7 (peptide)
# peptide: ALRSLGSGGFGWQAGRASPQGMTHFPYFGWSGMPTARVRPAAAGAPVPYPDPLEPRP
# notes: as for B1
# B6: DGI-2-40F-3-A24 (peptide)
# peptide: RCFQDGRMLALSPTYLIRRSVSPLVVGPLPTPAAAGAPVPYPDPLEPRP
# notes: as for B1
# B7: DGI-2-40F-3-B116 (peptide)
# peptide: GVVRAQQGLRYELQGDRYRLRRTQWLTVTYCSPSWAFAGCAAAGAPVPYPDPLEPRP
# notes: as for B1
# B8: DGI-2-20R-3-C10 (peptide)
# peptide: SLSLYWDAQVGCEVFWGYCVAAAGAPVPYPDPLEPRP
# notes: as for B1
# B9: DGI-2-20F-3-B102 (peptide)
# peptide: GLRACDTYLGFCVGARRIDDAAAGAPVPYPDPLEPRP
# notes: as for B1
# B10: DGI-2-20F-3-C3 (peptide)
# peptide: FSSVLGLLDRRGVPVVVGEDAAAGAPVPYPDPLEPRP
# notes: as for B1
# B11: DGL-2-40F-3-D10 (peptide)
# peptide: TLVTEGNKGSVKAHKDIGVWQLWWDWLSVTDSETVGRVSHAAAGAPVPYPDPLEPRP
# notes: as for B1
# B12: DGI-2-20F-3-B7 (peptide)
# peptide: WAGSTDLWQLWSLWVKPELRAAAGAPVPYPDPLEPRP
# notes: as for B1
# B13: DGI-2-20R-3-D5 (peptide)
# peptide: VAFGEQIRVAMAGTLWQRWRAAAGAPVPYPDPLEPRP
# notes: as for B1
# B14: DGI-2-40F-3-C92 (peptide)
# peptide: RFWSVSYQGGRVMCREWGYCLPIAAAGAPVPYPDPLEPRP
# notes: as for B1
# B15: DGI-2-20R-4-G6 (peptide)
# peptide: PAMGHCMQVLGPVLEGRSRDQVGRAAAGAPVPYPDPLEPRP
# notes: as for B1
# B16: DGI-2-20R-4-E4 (peptide)
# peptide: LTWGPQFGSLQVYSRHRGLPAAAGAPVPYPDPLEPRP
# notes: as for B1
# B17: DGI-2-40F-3-C7 (peptide)
# peptide: HPWVTNMLVFQRPPPPGFWLSDTTPRQRNGLGQVERPSVDAAAGAPVPYPDPLEPRP
# notes: as for B1
# B18: DGI-2-40F-3-B11 (peptide)
# peptide: LAPMFLQNQVRTWAASRRPLPAGPSNARCETGSLSPWVPCAAAGAPVPYPDPLEPRP
# notes: as for B1
# B19: DGI-2-20C-3-C65 (peptide)
# peptide: TPDRCLIYSSIQCLLEYSARRGSADAAAGAPVPYPDPLEPRP
# notes: as for B1
# B20: DGI-2-20F-3-B1 (peptide)
# peptide: LSRIWRGVIESAREVESRGIAAAGAPVPYPDPLEPRP
# notes: as for B1
# B21: DGI-2-40F-3-D6 (peptide)
# peptide: GLEPVPFQTDKRIAMGWTREWLVNGYGAAHRRDARMQSGHAAAGAPVPYPDPLEPRP
# notes: as for B1
# B22: DGI-2-40F-3-B122 (peptide)
# peptide: HSGNRQSGSRRTHLLNIFCSSDTFVFPGWSAYLSRVCPGDAAAGAPVPYPDPLEPRP
# notes: as for B1
# B23: DGI-2-20F-3-C2 (peptide)
# peptide: MAVLPAARDFGGVVQGGVSGAAAGAPVPYPDPLEPRP
# notes: as for B1
# B24: DGI-2-20F-3-A6 (peptide)
# peptide: FSSTGILLRSGRATAVGHVTAAAGAPVPYPDPLEPRP
# notes: as for B1
# B25: DGL-2-20R-3-D6 (peptide)
# peptide: ACSVGTALVFPQRWWYLGRSAAAGAPVPYPDPLEPRP
# notes: as for B1
# B26: DGI-2-40F-3-C6 (peptide)
# peptide: QMFSKGNWLAHPEGGVALGLSRESQLFRSCREFGYCMGPMAAAGAPVPYPDPLEPRP
# notes: as for B1
# B27: DGI-2-20R-4-F6 (peptide)
# peptide: GNKCFPPHDLFWDPCDQLQSAAAGAPVPYPDPLEPRP
# notes: as for B1
# B28: DGI-2-40F-3-B95 (peptide)
# peptide: DYKTCVSQHVHPLFGEYFYHKVTHMSILSPTFRVTSLYGKAAAGAPVPYPDPLEPRP
# notes: as for B1
# B29: DGI-2-40F-3-B10 (peptide)
# peptide: MQAASTLSTYMGAIRMGYPILHWDRGGVQRVDPGLYRGRVAAAGAPVPYPDPLEPRP
# notes: as for B1
# B30: DGI-2-20C-3-D12 (peptide)
# peptide: LVIQCSASVVACDLYWNYVGCLAAGAAAGAPVPYPDPLEPRP
# notes: as for B1
# B31: DGI-2-20F-3-D112 (peptide)
# peptide: YDQVWNSLLAAVLGGQELVNAAAGAPVPYPDPLEPRP
# notes: as for B1
# B32: DGI-2-20R-4-G32 (peptide)
# peptide: LSVFRPGQFPHVGARGVSRTAAAGAPVPYPDPLEPRP
# notes: as for B1
# B33: DGI-2-40F-3-C52 (peptide)
# peptide: GLLFTSSPYQCFWVHCTLTMSPLSVLGDLSSTIGRMRASRAAAGAPVPYPDPLEPRP
# notes: as for B1
# B34: DGI-2-40F-3-B72 (peptide)
# peptide: PKDGAAFKGSDFIQGGQTVMERAPALWWRDGGGQWEAPSTAAAGAPVPYPDPLEPRP
# notes: as for B1
# B35: DGI-2-40F-3-D12 (peptide)
# peptide: QGSAHVVRPPGVYDVPWKVGMFFHPQNWPNSWGRAYFRSGAAAGAPVPYPDPLEPRP
# notes: as for B1
# B36: DGI-2-40F-3-D9 (peptide)
# peptide: RRTSADTDQLSRWEGAQAFSSLRSALSERLDSLRPGLPPSAAAGAPVPYPDPLEPRP
# notes: as for B1
# B37: DGI-2-20F-3-A7 (peptide)
# peptide: LSLLSVVVRSMGASAPQRQVAAAGAPVPYPDPLEPRP
# notes: as for B1
# Molecular target: T1, DGI-2 polypeptide (UniProt Q15004 1-111, limits assumed)
# T1 construct: Vector-derived residues or tag of pIVEX2.3 are not described for this construct; also called KIAA0101
# T1 sequence (looked up): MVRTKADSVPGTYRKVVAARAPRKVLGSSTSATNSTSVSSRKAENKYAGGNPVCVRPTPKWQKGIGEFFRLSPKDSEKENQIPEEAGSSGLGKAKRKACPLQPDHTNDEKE
# Assay: phage ELISA, 405 nm; DGI-2 coated
# Experimental: (§1) For analysis of individual target binders, colonies were picked and phage prepared as described above using helper phage, M13KO7. Ninety-six-well microtiter plates were coated with 500 ng/well of specific target protein, 500 ng/well lactate dehydrogenase (LDH) irrelevant or non-specific target, 500 ng/well of positive control antibody raised against ETAG, and negative control of non-fat milk powder-PBS 2% at 4° C. overnight. Plates were then blocked with 350 microliters/well PBS containing 2% non-fat milk for 1 hr at room temperature. One hundred microliters per well of phage from isolated clones were added and plates were incubated at room temperature for 2 hr after centrifuging samples for 20 minutes at 3500 rpm at 4° C. The phage solution was then removed, and the wells were washed three times with PBS at room temperature. Antibody raised against M13 conjugated to horseradish peroxidase (Pharmacia) was diluted 1:3000 in PBS-Tween and added to each well (100 µl/well). Incubation was for 1 hr at room temperature, followed by washing with PBS-(0.5%) Tween 3 times as described. Color was developed by addition of ABTS solution (100 µl/well; Boehringer, Indianapolis, Ind.). Plates were analyzed at 405 nm. A clone was considered "positive" if the $A405$ of the well was $\geq$2-fold over background.
row,Binder,DGI-2 (OD)
1,B1,2.2
2,B2,1.5
3,B3,1.6
4,B4,1.2
5,B5,2.6
6,B6,1.3
7,B7,1.7
8,B8,2.2
9,B9,2.4
10,B10,1.1
11,B11,1.5
12,B12,1.6
13,B13,1.5
14,B14,2.1
15,B15,1.6
16,B16,1.6
17,B17,1.2
18,B18,1.8
19,B19,1.8

row,Binder,DGI-2 (OD)
1,B20,1.2
2,B21,2.5
3,B22,1.7
4,B23,1.3
5,B24,1.5
6,B25,2.2
7,B26,2.3
8,B27,2.3
9,B28,1
10,B29,1.3
11,B30,1.1
12,B31,1.4
13,B32,1.4
14,B33,1
15,B34,1
16,B35,2.3
17,B36,1.1
18,B37,2.1

# Molecular target: T2, antibody raised against ETAG
# T2 construct: read-out of display; also called E-tag antibody; E tag antibody
# Assay: phage ELISA, 405 nm; anti-E-tag antibody coated
# Experimental: as §1
row,Binder,ETAG (OD)
1,B1,8.7
2,B2,14.5
3,B3,14.6
4,B4,17.9
5,B5,10.3
6,B6,11.7
7,B7,6.5
8,B8,14.7
9,B9,18
10,B10,11.6
11,B11,10.3
12,B12,16.4
13,B13,8.5
14,B14,9.8
15,B15,11.5
16,B16,18.1
17,B17,8.8
18,B18,7.9
19,B19,7.4

row,Binder,ETAG (OD)
1,B20,11.4
2,B21,11.4
3,B22,11
4,B23,11.5
5,B24,13.2
6,B25,12.9
7,B26,10.1
8,B27,13.2
9,B28,5.4
10,B29,4.8
11,B30,3.6
12,B31,19.9
13,B32,11
14,B33,4.6
15,B34,10.4
16,B35,7.3
17,B36,15.8
18,B37,7

# Molecular target: T1, DGI-2 polypeptide
# Assay: phage ELISA, 405 nm; DGI-2 signal over LDH signal
# Experimental: as §1
row,Binder,DGI-2/LDH (OD) [ratio]
1,B1,2.5
2,B2,1.4
3,B3,1.6
4,B4,1.1
5,B5,2.6
6,B6,1.4
7,B7,2
8,B8,2.1
9,B9,2.5
10,B10,1.1
11,B11,1.7
12,B12,1.6
13,B13,1.4
14,B14,2.6
15,B15,1.4
16,B16,1.3
17,B17,1.5
18,B18,2
19,B19,1.8

row,Binder,DGI-2/LDH (OD) [ratio]
1,B20,1.2
2,B21,2.6
3,B22,2.2
4,B23,1.3
5,B24,1.4
6,B25,2.1
7,B26,2.8
8,B27,2.3
9,B28,1.2
10,B29,1.4
11,B30,1.1
12,B31,1.4
13,B32,1.2
14,B33,1.3
15,B34,1.3
16,B35,2.5
17,B36,1.4
18,B37,2.4
